Assay results published in FireProtDB (doi:10.1021/bi972279a).

Conditions: Saccharomyces cerevisiae (strain ATCC 204508 / S288c), pH 4.6, Thermal, CD, acetate 100 mM, reversible: yes; for ddG of mutation (higher = less stable) / heat capacity change of unfolding / unfolding free energy: 25 °C

Chain of Cytochrome c isoform 1 P82Y, P00044 (P00044 whole entry P82Y, canonical isoform): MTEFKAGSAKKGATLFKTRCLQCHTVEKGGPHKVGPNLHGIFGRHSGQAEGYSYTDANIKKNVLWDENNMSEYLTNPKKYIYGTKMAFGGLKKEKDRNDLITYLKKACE
Chain of Cytochrome c isoform 1 P82G, P00044 (P00044 whole entry P82G, canonical isoform): as the sequence (P00044 whole entry P82Y, canonical isoform) above, with Y82G counted along it
Chain of Cytochrome c isoform 1 P82R, P00044 (P00044 whole entry P82R, canonical isoform): as the sequence (P00044 whole entry P82Y, canonical isoform) above, with Y82R counted along it
Chain of Cytochrome c isoform 1 wild type, P00044 (P00044 whole entry, canonical isoform): as the sequence (P00044 whole entry P82Y, canonical isoform) above, with Y82P counted along it
Chain of Cytochrome c isoform 1 P82V, P00044 (P00044 whole entry P82V, canonical isoform): as the sequence (P00044 whole entry P82Y, canonical isoform) above, with Y82V counted along it
Chain of Cytochrome c isoform 1 P82W, P00044 (P00044 whole entry P82W, canonical isoform): as the sequence (P00044 whole entry P82Y, canonical isoform) above, with Y82W counted along it
Chain of Cytochrome c isoform 1 P82S, P00044 (P00044 whole entry P82S, canonical isoform): as the sequence (P00044 whole entry P82Y, canonical isoform) above, with Y82S counted along it
Chain of Cytochrome c isoform 1 P82L, P00044 (P00044 whole entry P82L, canonical isoform): as the sequence (P00044 whole entry P82Y, canonical isoform) above, with Y82L counted along it

Cytochrome c isoform 1 P82G, P00044
ddG of mutation (higher = less stable) (structure 1YCC): 0.78 kcal/mol
heat capacity change of unfolding (structure 1YCC): 1.37 kcal/mol/K
unfolding free energy (structure 1YCC): 4.3 kcal/mol
Tm (structure 1YCC): 48.5 °C
change of melting temperature, mutant - wild type (higher = more stable) (structure 1YCC): -5 °C

Cytochrome c isoform 1 P82L, P00044
Tm (structure 1YCC): 48.6 °C
change of melting temperature, mutant - wild type (higher = more stable) (structure 1YCC): -4.9 °C

Cytochrome c isoform 1 P82R, P00044
ddG of mutation (higher = less stable) (structure 1YCC): 0.97 kcal/mol
heat capacity change of unfolding (structure 1YCC): 1.37 kcal/mol/K
unfolding free energy (structure 1YCC): 4.11 kcal/mol
Tm (structure 1YCC): 48.6 °C
change of melting temperature, mutant - wild type (higher = more stable) (structure 1YCC): -4.9 °C

Cytochrome c isoform 1 P82S, P00044
ddG of mutation (higher = less stable) (structure 1YCC): 1.89 kcal/mol
heat capacity change of unfolding (structure 1YCC): 1.37 kcal/mol/K
unfolding free energy (structure 1YCC): 3.19 kcal/mol
Tm (structure 1YCC): 47.8 °C
change of melting temperature, mutant - wild type (higher = more stable) (structure 1YCC): -5.7 °C

Cytochrome c isoform 1 P82V, P00044
ddG of mutation (higher = less stable) (structure 1YCC): 1.07 kcal/mol
heat capacity change of unfolding (structure 1YCC): 1.37 kcal/mol/K
unfolding free energy (structure 1YCC): 4.01 kcal/mol
Tm (structure 1YCC): 48.3 °C
change of melting temperature, mutant - wild type (higher = more stable) (structure 1YCC): -5.2 °C

Cytochrome c isoform 1 P82W, P00044
ddG of mutation (higher = less stable) (structure 1YCC): 2.38 kcal/mol
heat capacity change of unfolding (structure 1YCC): 1.37 kcal/mol/K
unfolding free energy (structure 1YCC): 2.7 kcal/mol
Tm (structure 1YCC): 47 °C
change of melting temperature, mutant - wild type (higher = more stable) (structure 1YCC): -6.5 °C

Cytochrome c isoform 1 P82Y, P00044
ddG of mutation (higher = less stable) (structure 1YCC): 2.07 kcal/mol
heat capacity change of unfolding (structure 1YCC): 1.37 kcal/mol/K
unfolding free energy (structure 1YCC): 3.01 kcal/mol
Tm (structure 1YCC): 46.7 °C
change of melting temperature, mutant - wild type (higher = more stable) (structure 1YCC): -6.8 °C

Cytochrome c isoform 1 wild type, P00044
heat capacity change of unfolding: 1.37 kcal/mol/K
unfolding free energy: 5.08 kcal/mol
Tm: 53.5 °C
